The source of these data is US20100261620A1 (published 2010).

Numbering of substitutions follows the chain as printed.

This assay addresses IL-13 (Homo sapiens (Human), UniProt P35225 35-146, limits assumed). In words: Biacore.

Chain of IL-13 (P35225 35-146 limits assumed): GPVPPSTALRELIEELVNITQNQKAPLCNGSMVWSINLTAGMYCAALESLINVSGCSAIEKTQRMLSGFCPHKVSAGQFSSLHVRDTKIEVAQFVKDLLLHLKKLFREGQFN

B1: M453 (antibody, V domains shown)
VH: QVTLKESGPVLVKPTETLTLTCTVSGFSLSTYGMGVGWIRQPPGKALEWLAHIWWDDVKRYNPALKSRLTISKDTSKSQVVLTMTNMDPVDTATYYCARMGSDYDVWFDYWGQGTLVTVSS
VL: EIVLTQSPATLSLSPGERATLSCRASKSISKYLAWYQQKPGQAPRLLIYSGSTLQSGIPARFSGSGSGTDFTLTISSLEPEDFAVYYCQQHDWGPYTFGQGTKLEIK
notes: anti-IL-13, human IgG1
Take B1: the dissociation constant Kd (usually a measure of binding affinity in units of concentration) was found to be 0.044 nM; the dissociation rate constant (koff) – broadly, the rate constant with which the complex falls apart – was determined as 4.7e-05 s⁻¹; the kon (as a rule, the rate constant with which the complex forms) was 1.06e+06 M⁻¹ s⁻¹.

B2: M475 (antibody, V domains shown)
VH: B1 VH
VL: B1 VL with D92L, W93M
notes: anti-IL-13, human IgG1
In turn, B2 returned an equilibrium dissociation constant (Kd) of 0.187 nM, a dissociation rate constant (koff) of 0.000213 s⁻¹ and an on-rate (kon) of 1.14e+06 M⁻¹ s⁻¹.

B3: M473 (antibody, V domains shown)
VH: B1 VH
VL: B1 VL with W93R, G94D
notes: anti-IL-13, human IgG1
B3 came in with an equilibrium dissociation constant (Kd) of 0.312 nM, a koff of 0.000403 s⁻¹ and an association rate constant (kon) of 1.29e+06 M⁻¹ s⁻¹.

B4: M450 (antibody, V domains shown)
VH: B1 VH
VL: B1 VL with W93P
notes: anti-IL-13, human IgG1
B4 registered a Kd of 0.063 nM, a koff of 0.000107 s⁻¹ and an on-rate constant (kon) of 1.71e+06 M⁻¹ s⁻¹.

B5: M463 (antibody, V domains shown)
VH: B1 VH
VL: B1 VL with H91Q, W93L
notes: anti-IL-13, human IgG1
Consider B5, for which the equilibrium dissociation constant (Kd) turned out to be 0.037 nM, the koff came to 6.3e-05 s⁻¹ and the association rate constant (kon) came out at 1.7e+06 M⁻¹ s⁻¹.

B6: M456 (antibody, V domains shown)
VH: B1 VH
VL: B1 VL with D92S, W93Y
notes: anti-IL-13, human IgG1
Molecule B6 displayed a dissociation constant Kd of 0.148 nM, a koff of 0.000182 s⁻¹ and an association rate constant (kon) of 1.24e+06 M⁻¹ s⁻¹.

B7: H2L6 HFS variant (antibody, V domains shown)
VH: B1 VH
VL: B1 VL with D92N, W93E, G94Y
notes: IgG1; also called IL13-62
B7 came in with a Kd of 0.754 nM, a koff of 0.000944 s⁻¹ and an on-rate constant (kon) of 1.25e+06 M⁻¹ s⁻¹.

B8: M468 (antibody, V domains shown)
VH: B1 VH
VL: B1 VL with D92F
notes: anti-IL-13, human IgG1
Regarding B8, the dissociation constant Kd came to 0.094 nM, the koff stood at 0.0001 s⁻¹ and the kon turned out to be 1.06e+06 M⁻¹ s⁻¹.

B9: M449 (antibody, V domains shown)
VH: B1 VH
VL: B1 VL with D92E, W93S
notes: anti-IL-13, human IgG1
With B9, the equilibrium dissociation constant (Kd) was 0.089 nM, the off-rate (koff) was determined as 9e-05 s⁻¹ and the kon amounted to 1.02e+06 M⁻¹ s⁻¹.

B10: M465 (antibody, V domains shown)
VH: B1 VH
VL: B1 VL with W93N, G94S
notes: anti-IL-13, human IgG1
As to B10, binding was put at a Kd of 0.306 nM, the koff came to 0.000336 s⁻¹ and the kon is 1.1e+06 M⁻¹ s⁻¹.

B11: M469 (antibody, V domains shown)
VH: B1 VH
VL: B1 VL with G94E
notes: anti-IL-13, human IgG1
As to B11, binding was put at a Kd of 0.1 nM, the dissociation rate constant (koff) was found to be 0.000143 s⁻¹ and the on-rate (kon) stood at 1.43e+06 M⁻¹ s⁻¹.

B12: M462 (antibody, V domains shown)
VH: B1 VH
VL: B1 VL with D92N, W93F
notes: anti-IL-13, human IgG1
In turn, B12 gave a dissociation constant Kd of 0.366 nM, a koff of 0.000417 s⁻¹ and an on-rate constant (kon) of 1.14e+06 M⁻¹ s⁻¹.

B13: M459 (antibody, V domains shown)
VH: B1 VH
VL: B1 VL with H91P, D92L, W93E, G94A
notes: anti-IL-13, human IgG1
In turn, B13 gave a Kd of 0.356 nM, an off-rate constant (koff) of 0.000449 s⁻¹ and a kon of 1.26e+06 M⁻¹ s⁻¹.

B14: M466 (antibody, V domains shown)
VH: B1 VH
VL: B1 VL with G94S
notes: anti-IL-13, human IgG1
In the case of B14, binding was characterised by a dissociation constant (Kd) of 0.225 nM, the off-rate (koff) is 0.000219 s⁻¹ and the association rate constant (kon) stood at 970000 M⁻¹ s⁻¹.

B15: M443 (antibody, V domains shown)
VH: B1 VH
VL: B1 VL with D92S
notes: anti-IL-13, human IgG1
For the molecule B15, the Kd was found to be 0.088 nM, the koff is 7.8e-05 s⁻¹ and the on-rate constant (kon) came to 880000 M⁻¹ s⁻¹.

B16: M472 (antibody, V domains shown)
VH: B1 VH
VL: B1 VL with H91P, D92L, W93D, G94S
notes: anti-IL-13, human IgG1
On to B16, for which the Kd was 0.259 nM, the koff amounted to 0.000375 s⁻¹ and the on-rate constant (kon) turned out to be 1.44e+06 M⁻¹ s⁻¹.

B17: M467 (antibody, V domains shown)
VH: B1 VH
VL: B1 VL with D92S, G94A
notes: anti-IL-13, human IgG1
Regarding B17, the affinity, expressed as Kd, was 0.452 nM; the off-rate (koff) is 0.000455 s⁻¹; the association rate constant (kon) was found to be 1e+06 M⁻¹ s⁻¹.

B18: M451 (antibody, V domains shown)
VH: B1 VH
VL: B1 VL with H91P, D92L, W93D, G94V
notes: anti-IL-13, human IgG1
B18 showed a Kd of 0.177 nM, a koff of 0.000333 s⁻¹ and a kon of 1.88e+06 M⁻¹ s⁻¹.

B19: M461 (antibody, V domains shown)
VH: B1 VH
VL: B1 VL with D92S, W93I
notes: anti-IL-13, human IgG1
In turn, B19 had an equilibrium dissociation constant (Kd) of 0.193 nM, a dissociation rate constant (koff) of 0.000257 s⁻¹ and an on-rate constant (kon) of 1.33e+06 M⁻¹ s⁻¹.

B20: M464 (antibody, V domains shown)
VH: B1 VH
VL: B1 VL with D92E
notes: anti-IL-13, human IgG1
For the molecule B20, the Kd came to 0.055 nM, the koff was 7.1e-05 s⁻¹ and the association rate constant (kon) turned out to be 1.29e+06 M⁻¹ s⁻¹.

B21: M471 (antibody, V domains shown)
VH: B1 VH
VL: B1 VL with H91P, D92I, W93D, G94A
notes: anti-IL-13, human IgG1
B21 yielded a Kd of 0.253 nM, a dissociation rate constant (koff) of 0.000364 s⁻¹ and an on-rate constant (kon) of 1.44e+06 M⁻¹ s⁻¹.

B22: M452 (antibody, V domains shown)
VH: B1 VH
VL: B1 VL with D92L, W93N
notes: anti-IL-13, human IgG1
Regarding B22, the dissociation constant (Kd) is 0.233 nM, the koff amounted to 0.00027 s⁻¹ and the kon was 1.16e+06 M⁻¹ s⁻¹.

B23: M457 (antibody, V domains shown)
VH: B1 VH
VL: B1 VL with W93Y, G94A
notes: anti-IL-13, human IgG1
Take B23: binding was characterised by a dissociation constant (Kd) of 0.193 nM, the off-rate constant (koff) worked out at 0.000214 s⁻¹ and the kon was found to be 1.11e+06 M⁻¹ s⁻¹.

B24: M476 (antibody, V domains shown)
VH: B1 VH
VL: B1 VL with D92S, W93V
notes: anti-IL-13, human IgG1
The molecule B24 had a Kd of 0.315 nM, a koff of 0.000321 s⁻¹ and a kon of 1.02e+06 M⁻¹ s⁻¹.

B25: M454 (antibody, V domains shown)
VH: B1 VH
VL: B1 VL with H91Q, W93Y
notes: anti-IL-13, human IgG1
Regarding B25, the dissociation constant (Kd) was 0.065 nM, the off-rate (koff) came out at 7.4e-05 s⁻¹ and the kon is 1.13e+06 M⁻¹ s⁻¹.

B26: M444 (antibody, V domains shown)
VH: B1 VH
VL: B1 VL with D92V
notes: anti-IL-13, human IgG1
With B26, the dissociation constant (Kd) stood at 0.184 nM, the koff amounted to 0.00022 s⁻¹ and the kon turned out to be 1.2e+06 M⁻¹ s⁻¹.

B27: M445 (antibody, V domains shown)
VH: B1 VH
VL: B1 VL with D92L, W93L
notes: anti-IL-13, human IgG1
For B27, the equilibrium dissociation constant (Kd) is 0.262 nM, the off-rate constant (koff) was determined as 0.000291 s⁻¹ and the kon stood at 1.11e+06 M⁻¹ s⁻¹.

B28: M447 (antibody, V domains shown)
VH: B1 VH
VL: B1 VL with H91Q, W93I
notes: anti-IL-13, human IgG1
Molecule B28 returned a Kd of 0.055 nM, a koff of 5.4e-05 s⁻¹ and a kon of 980000 M⁻¹ s⁻¹.

B29: M470 (antibody, V domains shown)
VH: B1 VH
VL: B1 VL with D92L, W93D, G94S
notes: anti-IL-13, human IgG1
B29 came in with a Kd of 0.239 nM, a koff of 0.000311 s⁻¹ and an association rate constant (kon) of 1.3e+06 M⁻¹ s⁻¹.

B30: M474 (antibody, V domains shown)
VH: B1 VH
VL: B1 VL with W93L
notes: anti-IL-13, human IgG1
Consider B30, for which the affinity, expressed as Kd, was 0.365 nM; the koff is 0.000348 s⁻¹; the on-rate constant (kon) was determined as 950000 M⁻¹ s⁻¹.

B31: M455 (antibody, V domains shown)
VH: B1 VH
VL: B1 VL with D92N, W93E, G94A
notes: anti-IL-13, human IgG1
B31 yielded an equilibrium dissociation constant (Kd) of 0.186 nM, an off-rate constant (koff) of 0.000303 s⁻¹ and a kon of 1.63e+06 M⁻¹ s⁻¹.

B32: M477 (antibody, V domains shown)
VH: B1 VH
VL: B1 VL with D92S, W93S
notes: anti-IL-13, human IgG1
B32 gave a dissociation constant Kd of 0.495 nM, a koff of 0.00048 s⁻¹ and a kon of 970000 M⁻¹ s⁻¹.

B33: M448 (antibody, V domains shown)
VH: B1 VH
VL: B1 VL with D92S, W93H
notes: anti-IL-13, human IgG1
Molecule B33 returned a Kd of 0.092 nM, a koff of 0.000127 s⁻¹ and a kon of 1.39e+06 M⁻¹ s⁻¹.

B34: M446 (antibody, V domains shown)
VH: B1 VH
VL: B1 VL with D92V, W93G
notes: anti-IL-13, human IgG1
On to B34, for which the affinity, expressed as Kd, was 0.345 nM; the off-rate constant (koff) stood at 0.000465 s⁻¹; the on-rate (kon) came to 1.35e+06 M⁻¹ s⁻¹.
